Amide protons in BAP protected from exchange by ClpP (amide protons), stoichiometry N (BAP hexamers per ClpP double-heptamer) and stoichiometry N data for four substances are collected here from paper PMC4023160.

By stoichiometry N is commonly meant the number of molecules, sites or subunits per partner or assembly.

In test [1] the target is ClpP protease (UniProt P0A6G7). Kind of test: HDX-MS; BAP (100 pmol) with ClpP (200 pmol), 3 min at 30°C in low salt buffer A (50 mM Tris pH 7.5, 25 mM KCl, 20 mM MgCl2, 2 mM DTT) with ATPγS, diluted 20-fold into D2O buffer, 60 s exchange; mass of full length BAP.
Chain of ClpP protease (P0A6G7 15-207): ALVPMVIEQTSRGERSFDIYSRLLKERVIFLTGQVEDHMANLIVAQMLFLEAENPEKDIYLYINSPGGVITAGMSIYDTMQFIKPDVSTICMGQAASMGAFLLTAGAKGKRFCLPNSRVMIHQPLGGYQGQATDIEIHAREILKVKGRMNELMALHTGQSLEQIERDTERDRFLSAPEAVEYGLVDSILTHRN
Test [2] deals with ClpP protease (UniProt P0A6G7). As to the kind of experiment: negative-stain EM single-particle reconstruction; BAP(HAP)-ClpP complexes formed in 20 mM Tris-HCl pH 7.5, 20 mM KCl, 15 mM MgCl2, 1 mM DTT, 2 mM ATPγS; stained with 2% uranyl acetate; side views of 2:2 complexes cut into 1:1 halves; sixfold symmetry imposed or none.
Test [3] deals with BAP (ClpB with the ClpA tripeptide for ClpP binding), wild type (E. coli | not stated). The description is as above.
Test [4] addresses BAP Trap (E279A/E678A) variant (E. coli | not stated). As to the kind of experiment: cryo-EM structure; BAPtrap-ClpP and ClpB alone, vitrified, in the presence of ATPγS; side views only.
Test [5] concerns the target BAP-E432A (repressed mutant) (E. coli | not stated). Kind of test: negative-stain EM single-particle reconstruction; BAP(HAP)-ClpP complexes formed in 20 mM Tris-HCl pH 7.5, 20 mM KCl, 15 mM MgCl2, 1 mM DTT, 2 mM ATPγS; stained with 2% uranyl acetate; side views of 2:2 complexes cut into 1:1 halves; sixfold symmetry imposed or none.
Test [6] deals with HAP (Hsp104 with the ClpA tripeptide for ClpP binding) (S. cerevisiae). Described as above.

Consider “BAP (ClpB with the ClpA tripeptide for ClpP binding), wild type”, for which, in test [1], the amide protons in BAP protected from exchange by ClpP (amide protons) amounted to 30. This substance yielded a stoichiometry N (BAP hexamers per ClpP double-heptamer) in test [2] of 2. The stoichiometry N in test [3] was determined as 6.
In the case of BAP Trap (E279A/E678A) variant, in test [4], the stoichiometry N amounted to 6.
BAP-E432A (repressed mutant) yielded a stoichiometry N in test [5] of 6.
The substance “HAP (Hsp104 with the ClpA tripeptide for ClpP binding)” registered a stoichiometry N in test [6] of 6.
